The results in this text go back to article doi:10.1101/2022.07.28.501832.

Broadly, the pKi is −log10 of the Ki, conventionally taken in molar units.

The target of the assay is human RXFP4 on stably transfected CHO-K1 cells (human) (UniProt Q8TDU9). As to the kind of experiment: competitive binding of a europium-labelled ligand on cells.
Sequence of UniProt Q8TDU9 (Q8TDU9 whole entry): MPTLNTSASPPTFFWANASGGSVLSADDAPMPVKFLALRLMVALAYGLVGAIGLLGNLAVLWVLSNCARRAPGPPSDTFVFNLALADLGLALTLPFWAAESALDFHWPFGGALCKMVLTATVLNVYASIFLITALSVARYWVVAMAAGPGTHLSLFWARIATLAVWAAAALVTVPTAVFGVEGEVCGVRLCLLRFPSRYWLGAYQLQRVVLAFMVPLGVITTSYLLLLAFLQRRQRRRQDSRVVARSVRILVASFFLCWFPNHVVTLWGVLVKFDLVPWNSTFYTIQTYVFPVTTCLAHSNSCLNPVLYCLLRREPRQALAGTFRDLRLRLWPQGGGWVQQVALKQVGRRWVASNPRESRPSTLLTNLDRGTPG

In turn, “recombinant two-chain human insulin-like peptide 5 (INSL5) (ligand)” displayed a pKi of 8.19.
